From publication PMC12405487

Legend:
[1] = target: furin (soluble, mature, active) (UniProt P09958); assay: NMR, 2D 1H-15N HMBC of histidine side chains as a function of pH (600 MHz); details: pH 6.3-7.4; 278 K (~5 °C); 150 mM NaCl; 50 mM NaH2PO4/Na2HPO4 at each adjusted pH
furin (human) [2] = target: furin (human) (UniProt P09958); assay: enzyme inhibition kinetics (fluorogenic substrate); condition 3: 50 mM Hepes/NaOH pH 7.4, 300 mM NaCl, 2 mM CaCl2, 0.2% Triton X-100, 25 °C; substrate Ac-RR(Tle)KR-AMC; triplicates
furin (human) [3] = target: furin (human) (UniProt P09958); assay: enzyme inhibition kinetics (fluorogenic substrate); condition 2: 50 mM Mes/NaOH pH 6.0, 300 mM NaCl, 2 mM CaCl2, 0.2% Triton X-100, 25 °C; substrate Ac-RR(Tle)KR-AMC; triplicates
His72 = His72 (UniProt position 72, HYLFKHKNHPR); assay: NMR; details: 278 K (~5 °C); 150 mM NaCl plus 50 mM sodium phosphate; 50 mM NaH2PO4/Na2HPO4, 150 mM NaCl. The pH was set by dialysis into buffer of the adjusted pH, not by direct acid addition.; Isolated (furin-free) folded prodomain, 0.2 mM
His75 = His75 (UniProt position 75, FKHKNHPRRSR); assay: NMR; details: 278 K (~5 °C); 150 mM NaCl plus 50 mM sodium phosphate; 50 mM NaH2PO4/Na2HPO4, 150 mM NaCl. The pH was set by dialysis into buffer of the adjusted pH, not by direct acid addition.; Isolated (furin-free) folded prodomain, 0.2 mM
His85 = His85 (UniProt position 85, RRSAFHITKRL); assay: NMR; details: 278 K (~5 °C); 150 mM NaCl plus 50 mM sodium phosphate; 50 mM NaH2PO4/Na2HPO4, 150 mM NaCl. The pH was set by dialysis into buffer of the adjusted pH, not by direct acid addition.; Isolated (furin-free) folded prodomain, 0.2 mM

Chain of furin (soluble, mature, active) (P09958 whole entry): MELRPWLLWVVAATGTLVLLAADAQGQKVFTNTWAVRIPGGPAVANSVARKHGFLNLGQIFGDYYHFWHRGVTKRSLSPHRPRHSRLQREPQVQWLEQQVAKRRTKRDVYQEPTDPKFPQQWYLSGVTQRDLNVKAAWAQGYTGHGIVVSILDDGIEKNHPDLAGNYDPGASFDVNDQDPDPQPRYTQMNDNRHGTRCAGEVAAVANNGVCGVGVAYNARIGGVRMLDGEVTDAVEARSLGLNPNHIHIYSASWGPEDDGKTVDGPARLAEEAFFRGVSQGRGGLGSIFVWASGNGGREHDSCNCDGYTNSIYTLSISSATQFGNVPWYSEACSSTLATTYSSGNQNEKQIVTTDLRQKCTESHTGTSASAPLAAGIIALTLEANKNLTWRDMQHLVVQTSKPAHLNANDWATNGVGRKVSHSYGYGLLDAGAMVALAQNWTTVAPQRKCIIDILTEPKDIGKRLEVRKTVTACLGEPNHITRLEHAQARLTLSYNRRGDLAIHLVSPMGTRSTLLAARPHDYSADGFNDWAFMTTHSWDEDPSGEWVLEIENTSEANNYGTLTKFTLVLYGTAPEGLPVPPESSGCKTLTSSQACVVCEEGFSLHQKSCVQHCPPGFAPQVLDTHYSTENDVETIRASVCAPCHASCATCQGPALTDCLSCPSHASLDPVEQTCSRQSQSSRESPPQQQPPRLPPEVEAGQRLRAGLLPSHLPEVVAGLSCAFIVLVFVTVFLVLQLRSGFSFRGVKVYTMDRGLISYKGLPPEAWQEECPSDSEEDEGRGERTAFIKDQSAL

| Molecule | Ki (furin (human) [2]) | Ki (furin (human) [3]) | further results |
| --- | --- | --- | --- |
| PC1/3-prodomain, wild type (15N-labelled for NMR) |  |  | pKa, His72 of the PC1/3-prodomain (WT) [1]: 4.82 pH units; pKa, His75 of the PC1/3-prodomain (WT) [1]: 5.03 pH units; pKa, His85 of the PC1/3-prodomain (WT) [1]: 5.6 pH units |
| PC1/3-prodomain mutant M5 ((77)R-K-S-A-R) (from UniProt P29120 28-110) (domain or fragment) | 0.139 nM |  |  |
| PC1/3-prodomain mutant M1 (R78A) (from UniProt P29120 28-110) (domain or fragment) | 0.56 nM | 2.2 nM |  |
| Proprotein convertase 1/3 (PC1/3, neuroendocrine convertase 1) prodomain, wild type (Homo sapiens) |  |  | pKa (His72): 4.82; pKa (His75): 5.03; pKa (His85): 5.60 |
| PC1/3-prodomain mutant M2 ((77)A-R-S-A-A) (from UniProt P29120 28-110) (domain or fragment) | 0.73 nM | 0.88 nM |  |
| PC1/3-prodomain combination mutant M10 (M5 with His72Leu) (domain or fragment) GKRQFVNEWAAEIPGGPEAASAIAEELGYDLLGQIGSLENHYLFKLKNHPRKSARSAFHITKRLSDDDRVIWAEQQYEKERSKR | 0.101 nM | 0.14 nM |  |
